Measurements published in publication PMC7081834.

Biological target: Myc-PTEN wild type (human) (UniProt P60484)
Test: native gel or EMSA

stoichiometry N: 2
Substance: Myc-PTEN wild type, P60484 1-403 (natural protein; other documents disagree on this pair)
